Laboratory results reported in the DeepSol protein solubility set.

Assay: soluble on expression in E. coli; label from the status in PepcDB or PDB records

Sequence | soluble on expression in E. coli
ETDCRWDGCSQEFDSQEQLVHHINSEHIHGERKEFVCHWGGCSRELRPFKAQYMLVVHMRRHTGEKPHKCTFEGCRKSYSRLENLKTHLRSHTGEKPYMCEHEGCSKAFSNASDRAKHQNRTHSNEKPYVCKLPGCTKRYTDPSSLRKHVKTVHG | soluble
ETDETLGEREIRRVLARSGEEGNIDASEVDMIERVFDLDDTVVREVMVPRPDVVSVPADATMSDIRAVVLDEGHTRYPVVDADDSDQIVGFIDVKDVLRAGEEGNENTTAGDIAHEIPVVPETTAINDLLLQFRQDRRQMAAVIDEWGSLEGIATIEDVVEAVVGDLRDEFDVDGREHAIRKQSDGSYDADGGV | not soluble
EVKLQESGGDLVQPGGSLKLSCAASGFTFSSYTMSWVRQTPEKRLEWVASINNGGGRTYYPDTVKGRFTISRDNAKNTLYLQMSSLKSEDTAMYYCVRHEYYYAMDYWGQGTTVTVSSAWRHPQFGG | soluble
EVVVVGYQEVRRRDLTGSVAKANMADVLTAPVASFDQALGGRIAGVNVTSGEGMPGGNMSIVIRGNNSLTQENSPLFVIDGFPIEDSSAASTLNPSDIESLDFLKDASATAIYGARGANGVVIITTKKGK | not soluble
FCGRARVHTDFTPSPYDTDSLKLKKGDIIDIISKPPMGTWMGLLNNKVGTFKFIYVDVLS | soluble
FDKVKVSTNFTYTLNQNKIVSLANGAINPETGEAIEMEYYSKGTLGTSGGPTLRLYENGSMGDIYINQRLRQSPNGYIWKDPSNGSLAIENTEYRKVGSILPKYYLGWNGSVAWKGWNLGFAFTGRFGGLVVSDTQAMIDKYGVSESSAVARQAGGVWVGDSKVDAEEYYSKVTTAVGTYYTYSATNIRLSELSLSYQLPKTWFKNHVNMTLGLTGKNLWMIYCKAPYDPESTSSVTSNFYQGVDYFQQPSLRSLGFNVKLTF | not soluble
FGSLTVFAGDSPYAPPAGGEAIGRLMERAMHDGLVAGGIVLVGNRHGTIYEHVFGKQSSLPDSPPVTSSTIFDIASLTKVIATTPAVMRLAEEGRLSLVDPLVRWFPEFAGHGKDDVLVVHLLTHTSGLDDFSLSSADPLQSAISGVAAQKLKGEPGNRFRYADINFILLGELVRRVTGSTLDRYAADAFLRPLGMKDTAFLPGPAIAERCAATLDGSGGPHFGTVQDPLARLLGGVAGHAGLFGTASDLALFCRMILGEGELNGRRVLEERTVRQMTAPYFSRGGKVTRGLGWDMASPFSSPRGEGFSEESFGHTGYSGGSIWIDPRTDTYVIFLS | not soluble
FINQKKVEESELIENKTYGVLITKAGNYHKFESNQLLKSTTDFKSESDTIIFAQTIANTDQIFIVTSLGNIINIPVYKLAFNSKNKLASLVSKKPILLEYETIVFVGTMN | not soluble
FISRFAPDQPRKGADILVEALERQGVETVFAYPGGASMEIHQALTRSSSIRNVLPRHEQGGVFAAEGYARSSGKPGICIATSGPGATNLVSGLADALLDSVPLVAITGQVPRRMIGTDAFQETPIVEVTRSITKHNYLVMDVEDIPRIIEEAFFLATSGRPGPVLVDVPKDIQQQLAIPNWEQAMRLPGYMSRMPKPPEDSHLEQIVRLISESKKPVLYVGGGCLNSSDELGRFVELTGIPVATTLMGLGSYPCDDELSLHMLGMHGTVYANYAVEHSDLLLAFGVRFDDRVTGKLEAFASRAKIVHIDIDSAEIGKNKTPHVSVCGDVKLALQGMNKVLENRAEELKLDFGVWRNELNVQKQKFPLSFKTFGEAIPPQYAIKVLDELTDGKAIISTGVGQHQMWAAQFYNYKKPRQWLSSGGLGAMGFGLPAAIGASVANPDAIVVDIDGDGSFIMNVQELATIRVENLPVKVLLLNNQHLGMVMQWEDRFYKANRAHTFLGDPAQEDEIFPNMLLFAAACGIPAARVTKKADLREAIQTMLDTPGPYLLDVICPHQEHVLPMIPSGGTFNDVITEGDGRIKY | soluble
FLDDINEDALPNDRTGYQDTLIWNKLFNYQKDAATGIINKLESYNGCILADSVGLGKTFTALAVIKYYELRNKSVLVLCPKKLADNWLNYSRNLKTNIFARDRFNYDVLCHTDLSRTSGESFGTPLNRINWGNYDLVIIDESHNFRNNDAYKDKETRYQKLMNKVIKEGVKTKVLMLSATPVNNRFNDLRNQLALAYEGDS | not soluble
FMQDFEDIQKDIEQLDIKCAHEQMNIQKQYDEKKKPLFEKRDEIIQKIPGFWANTLRKHPALSDIVPEDIDILNHLVKLDLKDNMDNNGSYKITFIFGEKAKEFMEPLTLVKHVTFDNNQEKVVECTRIKWKEGKNPIAAVTHNRSDLDNEIPKWSIFEWFTTDELQDKPDVGELIRREIWHNPLSYYLGLEE | soluble
FPSKARMFEGLIEFIEESLMSRINRIFDEEKDTLNRIRLVMQLLLAFAERNPGLTRILSGHALMFENERLRDRINQLFERIETSLRQILRERKLREGKSFPVDENILAAQLLGQVEGSLNRFVRSDFKYLPTANFDEYWALLSAQIK | not soluble
FRELTEREEAVRESHQRISTILESITDAFFSLDHSWRFTYLNGEAERLLGRTRDDLLGKSIWEEFAAAVGTRFDVEYRRAVASGTTATFEEYYPPLACWFEVHAYPSRDGLSVFFQDIT | not soluble
FTPVTKAAVINTFDGVADYLIRYKRLPNDYITKSQASALGWVASKGDLAEVAPGKSIGGDVFSNREGRLPSAGSRTWREADINYVSGFRNADRLVYSSDWLIYKTTDHYATFTRIR | soluble
GAFGWEQDRGAPFSGRSPRILTRMTDAPRPTAGADAPARPPAAPLVAPNFITEIIERDLEAGKYPRVVTRFPPDPSGYAHLGHVFASLLDFNTARQYGGQFNLRMDDTNPELARQEYVDSIADDLKWLGLDWGEHFYYASDYFDRYYAYAEQLIRQGDAYVESVSPEELSRLRGNATTPGTPSPYRDRSVEENLDLLRRMKAGEFADGEHVLRAKIDLTAPNMKLRDPVLYRIVNKPHFRTSDEWHIYPAYDFEHPLQDAIEGVTHSMCSLEFVDNRAIYDWLMEKLNFDPRPHQYEFGRRGLEYTITSKRKLRELVQAGRVSGWDDPRMPTLRAQRRLGVTPEAVRAFAAQIGVSRTNRTVDIAVYENAVRDDLNHRAPRVMAVLDPVKVTLTNLDGEKTLSLPYWPHDVVRDSPDGLVGMPGGGRVAPEEAVRDVPLTRELYIERDDFSPAPPKGFKRLTPGGTVRLRGAGIIRADDFGTDEAGQVTHIRATLLGEDAKAAGVIHWVSAERALPAEFRLYDRLFRVPHPEGENADVEDDSAGPAEHEAEPGAGQETAPVSQGFMRYLTPDSLRVLRGYVEPSVAGDPADTRYQFERQGYFWRDPVELERVDSREDALVFGRIITLKDTWGKQGGGTQQKAEGKKRPSTKGRGPDEVRGEGSSSPAKAHAPKAQPLTPEQDAEFTRLLGLGASEGDARTIARDPALLAFVGGAAPGDTFAQVASWTVNELVAGLRAGEVKVRAADLAPLAEGVASGQLSARIAREALARAAASGDAPLTIIEREGLNAGLSAEALQQVVAQVIAANPDKAEAYRGGKTALLGFFTGQVMRATAGKADPQALAAALKDALA | soluble
GAKESEQKVTIDSAKHEKHTKDKEENNSANTVFFDKINDLLVASVKEFEGTVGISYLDLETGEQRSVNGQHEFYTASTIKVPLTMLVADTVASGQKKWTDLIPYNAEEDYEEGTGIIAYNIQPEYPLKTLQEYAITYSDNIAKNMLYDTLGGDAKAKREMYQRYLHKTPSIEEPQFSSEDALVILQKLYTEKATKPDYQAIYDSMKQSVFHERMETPTTQGKVAHKIGSYDEFIHDMGILETPHPFALAIFTKGPDNAKSAAFIASVTDKLWQLQVSEYPNQ | soluble
GAMDAEGLALLLPPVTLAALVDSWLREDCPGLNYAALVSGAGPSQAALWAKSPGVLAGQPFFDAIFTQLNCQVSWFLPEGSKLVPVARVAEVRGPAHCLLLGERVALNTLARCSGIASAAAAAVEAARGAGWTGHVAGTRKTTPGFRLVEKYGLLVGGAASHRYDLGGLVMVKDNHVVAAGGVEKAVRAARQAADFALKVEVECSSLQEAVQAAEAGADLVLLDNFKPEELHPTATVLKAQFPSVAVEASGGITLDNLPQFCGPHIDVISMGMLTQAAPALDFSLKLFAKEVAPVPKIH | soluble
GAMEKFKTLLYDIPIECMEVSEEIISYAKLQLGKKLNDSIYVSLTDHINFAIQRNQKGLDIKNALLWETKRLYKDEFAIGKEALVMVKNKTGVSLPEDEAGFIALHIVNAELNEEMPNIINITKVMEEILSIVKYHFKIEFNEESLHYYRFVTDLKFFAQRLFNGTHMESEDDFLLDTVKEKYHRAYECTKKIQTYIEREYEHKLTSDELLYLTIDIERVVKQA | soluble
GAMGMDEGDGEGNILPIMQSIMQNLLSKDVLYPSLKEITEKYPEWLQSHRESLPPEQFEKYQEQHSVMCKICEQFEAETPTDSETTQKARFEMVLDLMQQLQDLGHPPKELAGEMPPGLNFDLDAL | soluble
GAMGSEEKLREVSSQDPVTGLYNRSHFLDLMDAAVQQAVTARKPSTLAYIHLNGYPSLQADHGLSGIDLLLGQLAGLMREQFGEEADLARFGDSIFAALFKGKTPEQAQAALQRLLKKVENHLFELNGRSAQATLSIGVAGLDEKTAKAQDVMNRAHRCADDAARKGGSQIKQYNPAEELAAAAQRGDVIAILQQALETNSFRLLFQPVISLRGDSHENYEVLLRLLNPQGQEVPPAEFLHAAKEAGLAEKIDRWVILNSIKLLAEHRAKGHQTKLFVHLSSASLQDPGLLPWLGVALKAARLPPESLVFQISEADATSYLKQAKQLTQGLATLHCQAAISQFGCSLNPFNALKHLTVQFIKIDGSFVQDLNQVENQEILKGLIAELHEQQKLSIVPFVESASVLATLWQAGATYIQGYYLQGPSQAMDYDFSSGDE | soluble
GAMGSMATRIAILGAGPSGMAQLRAFQSAQEKGAEIPELVCFEKQADWGGQWNYTWRTGLDENGEPVHSSMYRYLWSNGPKECLEFADYTFDEHFGKPIASYPPREVLWDYIKGRVEKAGVRKYIRFNTAVRHVEFNEDSQTFTVTVQDHTTDTIYSAAFDYVVCCTGHFSTPYVPEFEGFEKFGGRILHAHDFRDALEFKDKTVLLVGSSYSAEDIGSQCYKYGAKKLISCYRTAPMGYKWPENWDERPNLVRVDTENAYFADGSSEKVDAIILCTGYIHHFPFLNDDLRLVTNNRLWPLNLYKGVVWEDNPKFFYIGMQDQWYSFNMFDAQAWYARDVIMGRLPLPSKEEMKADSMAWREKELTLVTAEEMYTYQGDYIQNLIDMTDYPSFDIPATNKTFLEWKHHKKENIMTFRDHSYRSLMTGTMAPKHHTPWIDALDDSLEAYLSDKSEIPVAKEA | soluble
GAMGSYDWLPRLSKENFNAAPVTCFPHAPGCEVWDNLGVGMKVEVENTDCDSIEVIQPGQTPTSFWVATILEIKGYKALMSYEGFDTDSHDFWVNLCNAEVHSVGWCATRGKPLIPPRTIEHKYKDWKDFLVGRLSGARTLPSNFYNKINDSLQSRFRLGLNLECVDKDRISQVRLATVTKIVGDRLFLRYFDSDDGFWCHEDSPIIHPVGWATTVGHNLAAPQDYLERMLAGREAMIEVHEDDATIELFKMNFTFDEYYSDGKTNSFVEGMKLEAVDPLNLSSICPATVMAVLKFGYMMIRIDSYQPDASGSDWFCYHEKSPCIFPAGFCSVNNISVTPPNGYDSRTFTWEGYLSDTGAVAAGQHLFHDIIPDHGFEVGMSLECADLMDPRLVCVATVARVVGRLLKVHFDGWTDEYDQWLDCESADIYPVGWCVLVNHKLEGPPR | soluble
GASIHDPISAGRYFAQRLRANPNEVFAVLFLDNRHRAISFEELFHGTINGAEVHPREVVRRALTLNAAAVIVGHNHPSGNREPSPADQMITQRLKNALDLIDVRLVDHFVIGDGAPVSFAEHGWL | not soluble
